Experimental findings from patent US20210403591A1 (OSSIANIX, published 2021) are described below.

Where a chain is given by its changes, count along the chain named. Like-named read-outs stand apart in the source and are kept apart here.

Test [1] concerns the target T1, purified mTfR1 mutant M2 (NAS) (mouse, UniProt Q62351 89-763).
T1 construct: also called G254A
The test is described as follows: ELISA, plate coated with purified mTfR-1 mutant M2 (NAS), serial dilution of the binder; y axis Norm. Vmax OD at 650nm. Background: In an ELISA, binding on a coated surface is turned into a signal by an enzyme label.

Test [2] has as its target T1, purified mTfR1 mutant M2 (NAS). As to the kind of experiment: ELISA, coated purified mTfR-1.
Test [3] addresses T2, purified mTfR1 mutant M1 (AGS) (mouse, UniProt Q62351 89-763).
T2 construct: also called N253A
The test is described as follows: ELISA, coated purified mTfR-1.

Test [4] addresses T3, purified mTfR1 mutant M3 (NGA) (mouse, UniProt Q62351 89-763).
T3 construct: also called S255A
As to the kind of experiment: ELISA, coated purified mTfR-1.

Test [5] concerns the target T4, purified WT mTfR-1 (ELISA coat) (mouse, UniProt Q62351 89-763). As to the kind of experiment: ELISA, coated purified mTfR-1.
Test [6] addresses T4, purified WT mTfR-1 (ELISA coat). As to the kind of experiment: ELISA, coated purified WT mTfR1. How it is done: Serial dilutions the VNAR-Fc fusion protein in blocking buffer (PBS-0.1% Tween+2.5% milk) were exposed to pre-blocked Nunc Maxisorp 96-well plates coated with the M1, M2 and M3 mutants at 1 μg/mL. After washing in PBS-0.1% Tween-20, binding of Clone C-hFc fusion was detected using an anti-human IgG (Fc specific) peroxidase antibody (Sigma-Aldrich) and the plates were developed using the chromogenic substrate TMB. Absorbance at 450 nm was recorded using an Envision multi-well reader (Perkin Elmer) and EC50s were calculated by fitting curves (non-linear regression) using GraphPad Prism®.
The binding of Clone C compared to the 8D3 antibody was tested on purified WT mTfR1 in addition to the three mutants by ELISA (FIG. 26).

Test [7] concerns the target T2, purified mTfR1 mutant M1 (AGS). The test is described as follows: ELISA, coated purified mTfR-1. The source holds these as a separate data set.
For test [8], the target named is T3, purified mTfR1 mutant M3 (NGA). As to the kind of experiment: ELISA, coated purified mTfR-1. The source holds these as a separate data set.
For test [9], the target named is T4, purified WT mTfR-1 (ELISA coat). The test is described as follows: ELISA, coated purified mTfR-1. The source holds these as a separate data set.

T2 sequence (Q62351 other isoform, or with tags, fused parts or gaps mutant): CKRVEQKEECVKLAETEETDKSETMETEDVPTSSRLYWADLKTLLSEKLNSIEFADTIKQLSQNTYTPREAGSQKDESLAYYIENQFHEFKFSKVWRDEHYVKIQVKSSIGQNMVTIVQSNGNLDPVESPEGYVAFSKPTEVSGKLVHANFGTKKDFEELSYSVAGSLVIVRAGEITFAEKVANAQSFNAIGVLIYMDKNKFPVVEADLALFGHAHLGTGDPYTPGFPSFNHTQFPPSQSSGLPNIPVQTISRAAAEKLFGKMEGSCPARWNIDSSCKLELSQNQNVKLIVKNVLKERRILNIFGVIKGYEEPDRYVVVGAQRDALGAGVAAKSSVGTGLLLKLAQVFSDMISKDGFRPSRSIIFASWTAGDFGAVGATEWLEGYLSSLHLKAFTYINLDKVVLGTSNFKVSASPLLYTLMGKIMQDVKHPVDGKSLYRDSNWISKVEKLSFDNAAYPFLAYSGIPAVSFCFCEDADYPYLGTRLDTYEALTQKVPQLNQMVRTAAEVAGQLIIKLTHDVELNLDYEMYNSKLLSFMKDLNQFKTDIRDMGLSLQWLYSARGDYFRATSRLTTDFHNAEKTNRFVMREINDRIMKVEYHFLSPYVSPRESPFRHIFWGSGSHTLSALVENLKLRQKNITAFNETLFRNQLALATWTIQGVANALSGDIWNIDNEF
T4 sequence (Q62351 89-763): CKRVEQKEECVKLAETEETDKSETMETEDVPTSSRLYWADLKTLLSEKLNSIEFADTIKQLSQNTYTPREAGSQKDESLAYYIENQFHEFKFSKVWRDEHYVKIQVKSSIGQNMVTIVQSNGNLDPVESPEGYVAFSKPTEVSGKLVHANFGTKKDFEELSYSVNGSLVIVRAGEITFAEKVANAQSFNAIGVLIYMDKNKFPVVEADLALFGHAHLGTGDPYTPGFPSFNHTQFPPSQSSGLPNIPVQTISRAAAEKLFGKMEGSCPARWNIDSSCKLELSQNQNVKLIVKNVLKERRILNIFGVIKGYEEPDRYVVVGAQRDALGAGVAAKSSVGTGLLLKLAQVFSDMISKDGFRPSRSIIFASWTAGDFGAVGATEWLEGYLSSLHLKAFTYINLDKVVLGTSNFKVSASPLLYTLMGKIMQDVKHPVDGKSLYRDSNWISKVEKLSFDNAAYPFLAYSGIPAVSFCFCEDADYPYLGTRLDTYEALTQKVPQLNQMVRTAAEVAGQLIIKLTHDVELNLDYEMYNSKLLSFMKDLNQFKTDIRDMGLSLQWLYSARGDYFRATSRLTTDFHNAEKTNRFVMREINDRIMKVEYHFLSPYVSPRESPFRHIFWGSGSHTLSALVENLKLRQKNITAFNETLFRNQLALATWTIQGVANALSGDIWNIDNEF
T3 sequence (Q62351 other isoform, or with tags, fused parts or gaps mutant): as the sequence (Q62351 89-763) above, with S167A counted along it
T1 sequence (Q62351 other isoform, or with tags, fused parts or gaps mutant): as the sequence (Q62351 89-763) above, with G166A counted along it

B1: 8D3 antibody (anti-mouse TfR-1 control; 8D3-hFc formatted antibody) (antibody, V domains shown)
VH: EVQLVESGGGLVQPGNSLTLSCVASGFTFSNYGMHWIRQAPKKGLEWIAMIYYDSSKMNYADTVKGRFTISRDNSKNTLYLEMNSLRSEDTAMYYCAVPTSHYVVDVWGQGVSVTVSS
VL: DIQMTQSPASLSASLEEIVTITCQASQDIGNWLAWYQQKPGKSPQLLIYGATSLADGVPSRFSGSRSGTQFSLKISRVQVEDIGIYYCLQAYNTPWTFGGGTKLELK
With B1, the concentration giving a half-maximal response (EC50 (read off the curve)) in test [1] is approximately 4000 pM. The EC50 was found to be 330 pM in [2]; 350 pM in test [3]; 510 pM in [4]; 490 pM in [5]; 11100 pM in test [6].

B2: Clone C VNAR-hFc fusion (Fc fusion, not shown: a dimerising Fc or GST)
chain: ARVDQTPQTITKETGESLTINCVLRDSNCALSSTYWYRKKSGSTNEENISKGGRYVETVNSGSKSFSLRINDLTVEDSGTYRCNVVQYPSYNNYFWCDVYGDGTAVTVN
notes: bivalent VNAR-Fc; also called Clone C-hFc
On to B2, for which the response in test [6] was half-maximal at 65400 pM (EC50).

B3: Clone C variant 13 VNAR-hFc (Fc fusion, not shown: a dimerising Fc or GST)
chain: B2 chain with S90Q, Y91Q, N92D
notes: also called Clone C v13; Clone C var; 13
As to B3, the half-maximal effective concentration (EC50) in [7] was determined as 1100 pM; in [8], 790 pM; in [9], 800 pM.

B4: Clone C variant 18 VNAR-hFc (Fc fusion, not shown: a dimerising Fc or GST)
chain: B2 chain with S90Q, N92P
notes: also called Clone C v18; Clone C var; 18
Consider B4, for which the results for the EC50 in test [7], in test [8] and in test [9] were 5900 pM, 2600 pM and 690 pM, respectively.

Broadly, the EC50 (read off the curve) is the concentration needed to bring the measured effect to its halfway point. Higher therefore signals lower potency in that assay. One may read the EC50 as the concentration at which the effect is half-maximal. A high value points to lower potency in that assay.
